Experimental data reported in patent publication US20060040319A1, “Multiple sensor-containing active modified polypeptides, preparation and uses thereof” (priority 2000, published 2006).
“Also recorded” adds a separate entry of the source.

Key:
[1] = target: T1, full length recombinant c-Abl (Mus musculus, UniProt P00520); assay: Kinase assay: phosphorylation of Rh-(Crk-II)-Fl by full length c-Abl (FRET, western blot, native PAGE); format: biochemical
T1 construct: full length recombinant (Baculovirus/SF9) mouse c-Abl; made in house; host or cells: Baculovirus/SF9
T1 sequence (P00520 whole entry): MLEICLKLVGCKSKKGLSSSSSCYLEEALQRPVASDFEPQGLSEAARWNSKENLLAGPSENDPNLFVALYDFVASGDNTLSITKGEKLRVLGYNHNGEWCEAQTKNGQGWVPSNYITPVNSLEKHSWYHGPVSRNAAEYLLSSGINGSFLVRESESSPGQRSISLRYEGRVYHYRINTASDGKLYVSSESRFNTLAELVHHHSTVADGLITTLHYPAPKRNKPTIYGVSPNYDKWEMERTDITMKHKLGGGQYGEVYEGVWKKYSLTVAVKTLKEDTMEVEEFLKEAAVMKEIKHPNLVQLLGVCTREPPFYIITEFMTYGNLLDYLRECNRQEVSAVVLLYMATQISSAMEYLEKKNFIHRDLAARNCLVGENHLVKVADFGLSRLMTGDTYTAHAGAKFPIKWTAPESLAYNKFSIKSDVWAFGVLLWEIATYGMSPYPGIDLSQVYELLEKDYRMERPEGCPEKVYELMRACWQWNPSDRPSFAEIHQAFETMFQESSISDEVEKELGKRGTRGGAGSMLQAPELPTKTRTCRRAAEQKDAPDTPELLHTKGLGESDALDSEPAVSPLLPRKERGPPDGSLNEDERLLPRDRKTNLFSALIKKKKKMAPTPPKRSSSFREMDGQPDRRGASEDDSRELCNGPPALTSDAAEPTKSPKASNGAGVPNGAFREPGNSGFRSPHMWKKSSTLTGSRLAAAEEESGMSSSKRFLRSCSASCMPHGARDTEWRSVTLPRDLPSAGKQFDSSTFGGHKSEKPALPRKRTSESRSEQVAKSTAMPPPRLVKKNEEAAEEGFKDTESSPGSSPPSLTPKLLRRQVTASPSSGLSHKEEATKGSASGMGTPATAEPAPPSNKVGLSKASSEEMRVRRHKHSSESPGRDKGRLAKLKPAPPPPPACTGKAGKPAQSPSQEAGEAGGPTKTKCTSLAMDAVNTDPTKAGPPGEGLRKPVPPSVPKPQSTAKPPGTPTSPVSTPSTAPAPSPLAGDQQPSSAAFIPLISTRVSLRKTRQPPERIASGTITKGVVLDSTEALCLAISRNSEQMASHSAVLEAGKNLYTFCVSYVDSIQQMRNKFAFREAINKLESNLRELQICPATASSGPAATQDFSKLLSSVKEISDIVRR
Description: (§1) Purified Rh-(Crk-II)-Fl prepared as described in Example I was treated with either full length recombinant (Baculovirus/SF9) mouse c-Abl or a GST fusion of mouse c-Abl containing only the SH2 and kinase domains (expressed in E. coli BL21 essentially as described (19)). In a typical experiment, the appropriate c-Abl construct was incubated in reaction buffer (2 mM DTT, 0.2 mg/ml BSA, 10 mM Mg^2+, 50 mM Tris, pH 7.4, either with or without ATP (500 μM)) for 5 min at 30° C. before addition of Rh-(Crk-II)-Fl (final concentration=0.25 μM). In order to ensure that equal amounts of active c-Abl enzyme were added to each reaction, preliminary titration experiments were carried out using an optimized peptide substrate for c-Abl (EAIYAAPFAKKK (SEQ ID No:2) (20)). For peptide inhibition studies, Rh-(Crk-II)-Fl was pre-incubated for 30 min with a high affinity ligand for the N-SH3 domain of Crk, PPPALPPKRRR-NH2 (SEQ ID No:7) (21), such that the final concentration of ligand in the kinase assay was 12 μM. In all cases, aliquots of the reaction mixtures were removed at ˜1 min and 60 min, quenched with EDTA (final conc.=40 mM), and then analyzed by native-PAGE and/or Western blotting and fluorescence spectroscopy.
Western Blotting. Standard procedures were used to probe for tyrosine phosphorylation using a mouse monoclonal anti-phosphotyrosine primary antibody (PY20, Santa Cruz Biotechnology) and a HPO-conjugated goat anti-mouse polyclonal secondary antibody (Amersham Pharmacia).
Fluorescence Spectroscopy. Experiments were conducted at 18° C. in a stirred 0.5 cm-pathlength cell using a SPEX FL3-11C fluorimeter. Samples from the reactions (50 μl) were diluted into 2 mM DTT, 0.4 mg/mL BSA, 140 mM NaCl, 50 mM Tris, pH 7.4 buffer (450 μl) for analysis. Excitation was at 490 nm with a 2.5 nm slit and the fluorescence emission was monitored at 520 nm and 580 nm through a 4 nm slit. Purified Rh-(Crk-II)-Fl was assayed for its ability to biosense Crk-II phosphorylation by the c-Abl protein tyrosine kinase. As indicated previously, phosphorylation by c-Abl leads to an intramolecular association between a phosphotyrosine motif and the Crk-II SH2 domain, which could potentially be reported by the dual-labeled Crk-II derivative (FIG. 1). Rh-(Crk-II)-Fl was treated with full length recombinant c-Abl and aliquots of the reaction mixture were analyzed by fluorescence spectroscopy and western blotting at ˜1 min and 60 min time-points. […] In contrast, when ATP was included in the reaction mixture, a phosphorylation-dependent increase in the emission intensity ratio (a decrease in FRET) was consistently observed.

[2] = target: T2, GST fusion of mouse c-Abl containing only the SH2 and kinase domains (Mus musculus, UniProt P00520); assay: Kinase assay with truncated c-Abl containing only the SH2 and kinase domains; format: biochemical; details: truncated c-Abl (SH2 and kinase domains only), over 60 min
T2 construct: a GST fusion of mouse c-Abl containing only the SH2 and kinase domains; made in house; host or cells: E. coli BL21
T2 sequence (P00520 127-493): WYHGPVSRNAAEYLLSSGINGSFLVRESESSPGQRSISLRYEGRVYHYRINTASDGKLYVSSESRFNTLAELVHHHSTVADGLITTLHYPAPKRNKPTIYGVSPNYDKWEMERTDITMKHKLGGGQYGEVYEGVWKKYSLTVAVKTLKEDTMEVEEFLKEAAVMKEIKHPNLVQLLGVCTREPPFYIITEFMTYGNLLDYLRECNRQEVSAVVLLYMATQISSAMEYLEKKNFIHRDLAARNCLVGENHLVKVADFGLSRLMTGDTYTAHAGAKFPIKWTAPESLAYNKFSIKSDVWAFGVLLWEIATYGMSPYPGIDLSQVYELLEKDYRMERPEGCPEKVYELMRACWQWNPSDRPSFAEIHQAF
Description: as §1, with “For peptide inhibition studies, Rh-(Crk-II)-Fl was pre-incubated for 30 min with a high affinity ligand for the N-SH3 domain of Crk, PPPALPPKRRR-NH2 (SEQ ID No:7) (21), such that the final concentration of ligand in the kinase assay was 12 μM.” left out, “spectroscopy. […]” for “spectroscopy.”
Fluorescence Spectroscopy. […] Excitation was at 490 nm with a 2.5 nm slit and the fluorescence emission was monitored at 520 nm and 580 nm through a 4 nm slit. […] Rh-(Crk-II)-Fl was treated with full length recombinant c-Abl and aliquots of the reaction mixture were analyzed by fluorescence spectroscopy and western blotting at ˜1 min and 60 min time-points. […]

B1: Rh-(Crk-II)-Fl: semi-synthetic mouse Crk-II adapter protein with tetramethylrhodamine and fluorescein FRET pair at the N- and C-termini (protein)
chain: KRGCAGNFDSEERSSWYWGRLSRQEAVALLQGQRHGVFLVRDSSTSPGDYVLSVSENSRVSHYIINSSGPRPPVPPSPAQPPPGVSPSRLRIGDQEFDSLPALLEFYKIHYLDTTTLIEPVARSRQGSGVILRQEEAEYVRALFDFNGNDEEDLPFKKGDILRIRDKPEEQWWNAEDSEGKRGMIPVPYVEKYRPASASVSALIGGNQEGSHPQPLGGPEPGPYAQPSVNTPLPNLQNGPIYARVIQKRVPNAYDKTALALEVGELVKVTKINVSGQWEGECNGKRGHFPFTHVRLLDQQNPDEDFSGCGXGLEVLFQ
modifications: not fully specified; tetramethylrhodamine N-terminal, fluorescein C-terminal; Protein Kinase Target
notes: semi-synthetic mouse Crk-II adapter protein with tetramethylrhodamine and fluorescein FRET pair at the N- and C-termini
- change in FRET ([1]; absence of ATP): essentially no change in FRET
- phosphorylation detected with anti-phosphotyrosine monoclonal antibody (western) ([1]; absence of ATP): no Rh-(Crk-II)-Fl phosphorylation could be detected
- extent of phosphorylation by native PAGE mobility ([1]; with ATP, after 1 h): completely phosphorylated
- decrease in FRET (increase in Fl:Rh emission intensity ratio) ([1]; with ATP, after 60 min): ~3%
- phosphorylation by fluorescence and western blotting analysis [2]: did not lead to any detectable phosphorylation; also recorded: complete lack of phosphorylation
